Results as given in article PMC5746249, “Novel linear motif filtering protocol reveals the role of the LC8 dynein light chain in the Hippo pathway” (PLoS Computational Biology, 2017).

B1: WWC1 (KIBRA) LC8 binding motif peptide, start 887 (peptide)
chain: ALKVDKETNTE
modifications: core 887-894 printed; 11-mer assumed to add 3 N-terminal residues, as in the S1 Table motif format; termini chemistry not stated
B2: AMOTL2 LC8 binding motif peptide, start 724 (peptide)
chain: HGSRDGSTQTE
modifications: core 724-731 printed; 11-mer assumed to add 3 N-terminal residues, as in the S1 Table motif format; termini chemistry not stated
B3: AMOTL1 LC8 binding motif peptide, start 873 (peptide)
chain: TGSKDSSTQTD
modifications: core 873-880 printed; 11-mer assumed to add 3 N-terminal residues, as in the S1 Table motif format; termini chemistry not stated
B4: WWC2 LC8 binding motif peptide, start 282 (peptide)
chain: RQTLDAGSQTS
modifications: core 282-289 printed; 11-mer assumed to add 3 N-terminal residues, as in the S1 Table motif format; termini chemistry not stated
B5: WWC3 LC8 binding motif peptide, start 867 (peptide)
chain: PLKVDKETNTE
modifications: printed start 867 appears to be in older 1092-aa numbering (current entry +124, so core 991-998); 11-mer assumed to add 3 N-terminal residues, as in the S1 Table motif format
B6: WWC2 LC8 binding motif peptide, start 962 (peptide)
chain: PTLVDKETNTD
modifications: core 962-969 printed; 11-mer assumed to add 3 N-terminal residues, as in the S1 Table motif format; termini chemistry not stated
B7: WWC3 LC8 binding motif peptide, start 208 (peptide)
chain: QQFCDAGSQTD
modifications: printed start 208 appears to be in older 1092-aa numbering (current entry +124, so core 332-339); 11-mer assumed to add 3 N-terminal residues, as in the S1 Table motif format
B8: AMOT LC8 binding motif peptide, start 860 (peptide)
chain: TGSRDCSTQTE
modifications: core 860-867 printed; 11-mer assumed to add 3 N-terminal residues, as in the S1 Table motif format; termini chemistry not stated
B9: WWC1 (KIBRA) LC8 binding motif peptide, start 278 (peptide)
chain: KQYLDVSSQTD
modifications: core 278-285 printed; S1 Table prints the 11-mer KQYLDVSSQTD starting at 275; termini chemistry not stated

Molecular target: LC8 dynein light chain (DYNLL2), full-length, His6-tagged (human (by the printed accession Q96FJ2), UniProt Q96FJ2 1-89)
Test: SPR; His6-LC8 immobilised on Ni2+-NTA HTG sensor chip (ProteOn XPR36) at three densities (1200, 900, 600 RU); peptides injected at five concentrations, 60 ul/min; 20 mM Hepes, 150 mM NaCl, 0.05% Tween-20, 0.1 mM TCEP, 50 uM EDTA, pH 7.5; 1:1 Langmuir global fit; apparent Kd, mean of kinetic and equilibrium analysis
Conditions: both partners purified

Sequence of LC8 dynein light chain (DYNLL2), full-length, His6-tagged (Q96FJ2 whole entry, one chain of several): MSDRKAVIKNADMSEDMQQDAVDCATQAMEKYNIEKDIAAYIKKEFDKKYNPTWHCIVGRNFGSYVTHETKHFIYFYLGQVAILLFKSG

Kd | Binder
4 µM | B1
1.98 µM | B2
1.55 µM | B3
32.7 µM | B4
3.5 µM | B5
17.6 µM | B6
5.34 µM | B7
1.2 µM | B8
0.45 µM | B9
